The DeepSol protein solubility set

Experiment: soluble on expression in E. coli; label from the status in PepcDB or PDB records

Sequence	soluble on expression in E. coli
GPGSMSSKAALLAVLAGSGQEHLVDDYDALSPSEQTTLATQILSYTNAQWKHMNVILRDSLRLLNLSNAAAGTGGGDAATAAPNITPPPADTIINVPALLAKRPSELAAIRAAGMRVVASGEGAVLLMAGGSGTRLGMTIPKGMVECDKLVSGRSLFAYHCQRIRKMERMAAAAAASLSQPSAVAAAGAAPVPPGAGRGTMPLLVTTSDQNDTATRQFFHDHDFFGLLPNQVFFSRQSSLPCYDEATGRVLMQARGSICLAPGGNAGVYESLAKASATTSGSQSVLAQIEARGVRYVQIVSVDNILARVGDPYFFGVAASYQAEVVLKTVPKVSAAEKVGVVAQVDGEWAVVEYTEIGDRRSAETDPATGELAFNCGSIASHCCSLDFLALAATYMETSTFYHAARKTIPTINGPAPAIKLEAFIFDVFRYAKDVPSRAERAKKAPLPDALQILQVDRSMEFAPIKNADGAAADTPTTAAQLLLDLHTRWVTEAIEAAPGTYAVASTSTSAMYTALERATALQRLRDGQCCWEISPLVSYEGEGLAAYVGQLIHRSATGSGVLGLEEATAGTANM	soluble
MAHHHHHHMEEESHALKDPWFVSYIPQLTTEIVKNNYEGDWNLAKEALQQPLDYVRTVEEFWSTLNSLPKLHQLESSSTFVFARNNVDASYEAFPNGTRIIVDIRKAAMAEKATAVILSSVIGESVSQEVCGGKPICDVLRLSSRPNKESPELVRLEVWLSDQTYGKAVLAYVRKALNDVGMSQPHVIFGESLFEKEKKKKGK	soluble
GSQITGTCPSGCSGDCYPECPPGCCGQVNLN	soluble
SYMERMDKRALISFWESVEHLKNANKNEIPQLVGEIYQNFFVESKEISVEKSLYKEIQQCLVGNKGIEVFYKIQEDVYETLKDRYYPSFIVSDLYEKLLIKEEEKHASQMISNKDEMGPRDEAGEEAVDDGTNQINEQASFAVNKLRELNEKLEYKRQALNSIQNAPKPDKKIVSKLKDEIILIEKERTDLQLHMARTDWWCENLGMWKASITSGEVTEENGEQLPCYFVMVSLQEVGGVETKNWTVPRRLSEFQNLHRKLSECVPSLKKVQLPSLSKLPFKSIDQKFMEKSKNQLNKFLQEETEEDSDLSDYGDDVDGRKDALAEPCFMLIGEIFELRGMFKWVRRTLIALVQVTFGRTINKQIRDTVSWIFSEQMLVYYINIFRDAFWPNGKLAPPTTIRSKEQSQETKQRAQQKLLENIPDMLQSLVGQQNARHGIIKIFNALQETRANKHLLYALMELLLIELCPELRVHLDQLKAGQV	soluble
MDWYEPGEDTYTLMDALEREGLEMKIVLDLGTSTGVITEQLRKRNTVVSTDLNIRALESHRGGNLVRADLLCSINQESVDVVVFNPPYVPDTDDPIIGGGYLGREVIDRFVDAVTVGMLYLLVIEANRPKEVLARLEERGYGTRILKVRKILGETVYIIKGEKS	not soluble
MSLKIMIVEDDRIQATSLKLKLRQLGLDDVILAENGFAALELCNKVGIDLMFCDIRMPQMDGISLLSQLSLQAPKLGVVILSAVEDTILELTHNMCSLAGFAYVDRLPKPYEVEDLQRVVEGFQKQTEPETSHKPAITLTCDEIEQAFLHDHIFNYYQPQFDFRSGAMVGVEALVRYEHPTHGMLSPAVFLPLIEQCGLHEKLFLTVLEKSVSALASIGADLQLSVNISQRNLQHSICDPILAICERYGFPASKLTLEMTEHEVYNGTPTSLANLARLRMYGVGLSIDDFGTGYASLGQLAQLPFTELKIDRSFVHDLATNYKHQQLTNMCLLLAQSLGLHCVVEGVENEETWQYLRQLGVDTCQGYYAAKPMPIAQLSELYTKNRRQCLGEGHHHHHH	soluble
GSHMASKPIEDYGKGKGRIEPMYIPDNTFYNADDFLVPPHCKPYIDKILLPGGLVKDRVEKLAYDIHRTYFGEELHIICILKGSRGFFNLLIDYLATIQKYSGRESSVPPFFEHYVRLKSYQNDNSTGQLTVLSDDLSIFRDKHVLIVEDIVDTGFTLTEFGERLKAVGPKSMRIATLVEKRTDRSNSLKGDFVGFSIEDVWIVGCCYDFNEMFRDFDHVAVLSDAARKKFEK	soluble
MIDFSNFYQLIAKSPLSHWLETLPAQVAAWQRDALHGKFREWERAVEFLPELTPWRLDLLHSVTAESETPLSEGHQRRIENLLKNLMPWRKGPYSLYGINIDTEWRSDWKWERVLPHLSDLTGRTILDVGCGSGYHMWRMIGAGAHLAVGIDPTQLFLCQFEAVRKLLGNDQRAHLLPLGIEQLPALEAFDTVFSMGVLYHRRSPLDHLWQLKDQLAPGGELVLETLVVEGDENTVLVPGDRYAQMRNVYFIPSAAALKMWLEKCGFIDVRIVDACVTSTEEQRRTEWMTTESLADFLDPQDQRKTVEGYPAPLRAVIIATKPETQQSLAKKAR	not soluble
MAHHHHHHMGGPREVTLKILDAIEAELKMSFKSIVEDRSLPYVSSSDTILVFGRSSLVEYILLSRSRDPQCKPKRVIVIDSAPLFEGRQLAEKLSSAGIDVTYGLITACCTLMPKCTRVFMGASAVLQNGDMFGRCGMALVAACAKLFRKPVLCFSESYKFVPEVWVGNLAQNTKLADMRPAAEVHGSDTGTHSPLVYPTPPTLSPPQLRASGGWGTPARGADFLTRSGGGGAVPFSSSASGYLYDLTPASYIDMIICEMGCLHTSAIVAAIKDREGRDTSQLLNLVRG	not soluble
MGGRSAQPRRFSFACRILHPAVAHDAMAGSRYILRAPASIIRLAQHGWLHCCLHFFLFPAMNDVCFVAKGSALYLFTVEIIVFGSPSLRHNVLSFFYFALPWFKRQCRLKVNFNRLKEIRGIAQVVRKAFFISKTLPCI	soluble
SKKEHVLHCQFSAWYPFFRGVTIKSVILPLPQNVKDYLLDDGTLVVSGRDDPPTHSQPDSDDEAEEIQWSDDENTATLTAPEFPEFATKVQEAINSLGGSVFPKLNWSAPRDAYWIAMNSSLKCKTLSDIFLLFKSSDFITRDFTQPFIHCTDDSPDPCIEYELVLRKWCELIPGAEFRCFVKENKLIGISQRDYTQYYDHISKQKEEIRRCIQDFFKKHIQYKFLDEDFVFDIYRDSRGKVWLIDFNPFGEVTDSLLFTWEELISENNLNGDFSEVDAQEQDSPAFRCTNSEVTVQPSPYLSYRLPKDFVDLSTGEDAHKLIDFLKLKRNQQEDD	soluble
MPYLNADRGKSGGYHIGHTLLWSSGKSRLEAIRYHVETSALEKIMFARLLSSERDEYSSEETEHRFDEGLQIYGYSPEDVSKARNKMAGFLAGWRHAVSVRRASMEQSADTEQ	soluble
MGSDKIHHHHHHMNSNFLSSYPRDVIAVLVKDDQPLEQPKCNVRLAEFTYATVGVNGEPTTASAAMLVPGGPQCQGPYPLLGWGDGTQTLRRDEMAKDIRDAKGNDPLVTHLASQGYVVVSTDYLGLGKSSYPFHPYLHSATEANAMIDALRAARTVLDRLNTPLSGKVMLSGYSVGGHAAMASQREIEAHLSKEFNLVASAPIAGPYALEQTFVDSWSGRNTVGESTFGLVLASYAIVGMQHAYQNIYTAPSQVFRAPWAATVESQFPGTKSLLDLFVDLPEIGKVKQYFQADFYRDFASNPNNPFRKDLARNDLLDWRPRTKTLLCGSSNDATVPLKNATTAIAAFEQRGSTQVSLVDLGTGKASDNSAGEHLAIKDSCIVAVRQQLLDKQR	not soluble
MSLYDTILFPTDGSNAAESVLEYALQIASEHEATIHILNVADTGRDSVTTIRGEVIDVLETEGERIVAEATQYAKDEGVPVVSAVLQGDPHKTIVDYSQQSDSDCIVMPTHGQRGIQRILLGSVTERVINTAEVPVIAVNPDRDRPLVYPPQHVLVPTDGSRGADLALTEGIAVARATDATLHLLHVVETGGLGPDARSVLKEGELTERANEIMAGATEKIDDTSLDTVTSVIEHGDPSKVICDYIDENEVDLAVMGTHGQTDFSRYVMGGVSAKLVRKSPVPVTWVREPESEGHHHHHH	soluble
MSLLRLHDGDLLFVTAARTGLSGAIDDATATQGAPSFDHVGLVAHDGRARVVLHADEEGSRQQPLADFIRQARAKQRQIFVYRLNAAQRAAIPDAIAQARRMLGKPYNLTYVQDDNSYYCSDFIERAFRAHQVFALQPMNFKNPQSGQMSAYWTEFYRSKGMDVPQGLPGTNPNDMARAPALQALGPLDEGHHHHHH	soluble
AYKVTLKTPDGDITFDVEPGERLIDIGSEKADLPLSCQAGACSTCLGKIVSGTVDQSEGSFLDDEQIEQGYVLTCIAIPESDVVIETHKEDEL	soluble
MAQHFRLSTAARQLSSDSLVCLPDAEIFQRLKQARWGNADNFVCPHCHIRHLAYFISTRKQWQCKHCQHRFSITAGTIFQGAKLPLRKILLAILYFATESKGLSAIALSHKLNVQYKTAWVLLHKFRESLDKAKDLTPLNGEVHIDGAYTNYYIRPKNFRHKRIDRRKKRYQRADKSCVLVFRQRAANQAVMKGADRSIVALVKEENTKDVLELTQRLVKPNSTIHADENPAYDCLAFHYDLWRVNHSQEYRSIEGITNNLAESFFARLRRAITGIYHKMSNKYLMYYANEMVWREDHRRKSVKEKFEQLLTCCLNTLPSRDFTGYWQGNKKGEAVFGLASLTASNDLHYLKAALEHHHHHH	soluble
MKIDILDKGFVELVDVMGNDLSAVRAARVSFDMGLKDEERDRHLIEYLMKHGHETPFEHIVFTFHVKAPIFVARQWFRHRIASYNELSGRYSKLSYEFYIPSPERLEGYKTTIPPERVTEKISEIVDKAYRTYLELIESGVPREVARIVLPLNLYTRFFWTVNARSLMNFLNLRADSHAQWEIQQYALAIARIFKEKCPWTFEAFLKYAYKGDILKEVQV	not soluble
MSLRGMRIDAYIAEHARKNPDQLALEDGKKSISYSCLDEDINKVASSLDGFEHCKFAILAESGIQYVKILMAVYRSGNIAIPLPIEMQGRSLERILDTACINNIIATKKQYSRFGDGFFERFGTVIVVSDDTSVETLSRRMILERNDPRLRLVLYTSGTTGTPKGVMLSDKNLVSNARSITGILSIGSKDKAALVISPHHAFGNSIINSHLMAGSSIQIGTMNFIDPVFSLIESGVSIFYGVPSTYRILLKYPERFRKAFQNVRTAASAGGAMDRTVVRSIRELSPDTQILPMYGQTEATARLSYLPAEDVDEFIDTIGKAIPGVTLEVFDTENRPVEPGVTGELVARGDNILLGYLNDEAATEKKIIDGWLHTGDLAQKLRCGYIKLLGRKDDLIKIGDHRVNPREIEKEIEMNNEVSSVFVVPVSHELMGNAISLMVIPNERTEIDTIFSFCRKNLPGYLYPREILFIDHLPLSENGKISNRSIIEEYQHVKASEGHHHHHH	soluble
MNILFAVSECVPFVKSGGLADVAGALPKELKKLGVDVRIILPNYSLIPQKLRDGCTLHKVINVPLGWRNQYCGILKGEQDGITYYLIDNEYYFKRDSLYGHYDDGERFSYFSKAVLECIPHLDFEVDVLHSHDWHTAMVNFLLREKYQDNPLYERIKTVYTIHNLQFQGVFPPEVIYDLLELGDEYFHSEQLEFYGNVNFMKGGIIASDQITAVSPTYKEEIQYEFFGEKLDGLLRKYNDKLSGIVNGIDTSVYNPETDSYIKAQYDAESLYEKSENKRALQRYFGLPEKEDTPIISMVTRLTKQKGLDLVRTVFREIMEEDVQCIILGSGDSEYEQFFEWMAYEYPEKVKVYIGFNEELAHQVYAGSDLFLMPSLFEPCGLGQLIALAYGTIPIVRETGGLNDTVHSYDEETGEGNGFSFTNFNAHDMLHTIHRAIEFYHDKPVWEQLVKQAMTEDYSWEQSALAYKELYKSLME	soluble
MTVPTYDKFIEPVLRYLATKPEGAAARDVHEAAADALGLDDSQRAKVITSGQLVYKNRAGWAHDRLKRAGLSQSLSRGKWCLTPAGFDWVASHPQPMTEQETNHLAFAFVNVKLKSRPDAVDLDPKADSPDHEELAKSSPDDRLDQALKELRDAVADEVLENLLQVSPSRFEVIVLDVLHRLGYGGHRDDLQRVGGTGDGGIDGVISLDKLGLEKVYVQAKRWQNTVGRPELQAFYGALAGQKAKRGVFITTSGFTSQARDFAQSVEGMVLVDGERLVHLMIENEVGVSSRLLKVPKLDMDYFE	soluble
